According to article PMC11461981 (Scientific Reports, 2024):
Read-outs that look alike come from different tables or passages of the source.

Columns and labels:
[1] = target: FAM-labeled phosphopeptide derived from C-terminal AHA2 (FAM-TPSHYpTV) (Arabidopsis thaliana); experiment: fluorescence polarisation
[2] = target: FAM-labeled phosphopeptide derived from C-terminal AHA2 (FAM-TPSHYpTV) (Arabidopsis thaliana); experiment: fluorescence polarisation; remark: listed apart in the source
[3] = target: FAM-labeled phosphopeptide derived from C-terminal AHA2 (FAM-TPSHYpTV) (Arabidopsis thaliana); experiment: fluorescence polarisation; remark: listed apart in the source
[4] = target: FAM-labeled phosphopeptide derived from C-terminal AHA2 (FAM-TPSHYpTV) (Arabidopsis thaliana); experiment: fluorescence polarisation; remark: listed apart in the source
[5] = target: 14-3-3φ (Arabidopsis thaliana, UniProt P19456+P46077); format: binding
Chain of 14-3-3φ (P46077 whole entry, other chains not shown): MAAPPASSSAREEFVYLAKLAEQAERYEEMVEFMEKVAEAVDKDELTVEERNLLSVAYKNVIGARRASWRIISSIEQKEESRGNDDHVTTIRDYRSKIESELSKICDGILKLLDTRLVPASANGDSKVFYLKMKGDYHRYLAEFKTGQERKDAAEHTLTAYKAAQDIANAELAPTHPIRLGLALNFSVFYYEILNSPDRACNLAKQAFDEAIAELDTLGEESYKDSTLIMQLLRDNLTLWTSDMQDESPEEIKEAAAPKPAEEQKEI

Kd [1] [nM] | Kd [2] [nM] | Kd [3] [nM] | Kd [4] [nM] | Kd [5] [nM] | Compound
160 | 530 | 890 | 150 |  | recombinant Arabidopsis thaliana His-14-3-3φ (from UniProt P46077 1-267) (natural protein)
 |  |  |  | 150 ± 30 | C=CC(C)(C)OC[C@H]1O[C@H](O[C@@H]2C3=C([C@H](C)COC(C)=O)C[C@H](O)[C@]3(C)/C=C3/[C@@H](COC)CC[C@H]3[C@@H](C)[C@H]2O)[C@H](O)[C@@H](OC(C)=O)[C@@H]1O [FC-A, Fusicoccin-A]
